Data reported in article PMC11009412, “Pathogenic mutations of human phosphorylation sites affect protein–protein interactions” (Nature Communications, 2024).

Tested on: BirA*-FLAG-GATAD1 variants in Flp-In-293 cells
Assay: BioID proximity labelling of full-length GATAD1 variants (SILAC)
Assay type: cell-based, human
Details: GATAD1 WT vs S102P, significant proteins only; for Log2_Ratio.H.L.normalized.WT_S102P_forward: forward experiment (label swap performed, sign inverted against the H/L ratio); for Log2_Ratio.H.L.normalized.WT_S102P_forward / Log2_Ratio.H.L.normalized.WT_S102P_reverse: log2 of normalized H/L ratio; for Ratio.H.L.normalized.WT_S102P_forward: forward experiment; for Log2_Ratio.H.L.normalized.WT_S102P_reverse / Ratio.H.L.normalized.WT_S102P_reverse: reverse experiment
Source text: The GATAD1 gene variants were ordered in a pTwist ENTR Kozak vector from Twist Bioscience. The genes were then transferred to a pDEST_pcDNA5_BirA_FLAG_Nterm vector[97] using the Gateway Clonase II system (Thermo Fisher Scientific). The resulting vectors, pEXPR_GATAD1-WT_N-term_BirA_FLAG, pEXPR_GATAD1-S102P_N-term_BirA_FLAG, pEXPR_GATAD1-S102D_N-term_BirA_FLAG, and pEXPR_GATAD1-S102A_N-term_BirA_FLAG, were used to generate tetracycline-inducible stable Flp-In^TM-293 T-REx cells. A 6-well plate was co-transfected with 0.5 µg of the pEXPR plasmid and 1 µg of the pOG44 Flp-recombinase expression vector (Thermo Fisher Scientific) using 4.5 µg of PEI (Polysciences) as a transfection reagent. The following day, the cells were trypsinized and transferred to a 10 cm dish containing DMEM supplemented with 10% FCS and 200 µg/ml hygromycin B (Invivogen) for selection. The cells were cultured for approximately 18 days with media exchange every 3 days until visible colonies were observed. After around 18 days, the colonies were trypsinized and transferred to another 10 cm dish for further characterization and experiments.
Stable Flp-In^TM-293 cell lines expressing GATAD1 variants were cultured using SILAC light (Lys0, Arg0) and SILAC heavy (Lys8, Arg10) media, as explained in the cell culture section. After full labeling, cells were split into 15 cm dishes and were treated with 1 μg/mL tetracycline for 24 h to induce the expression of GATAD1. After the induction period, cells were incubated with 50 μM biotin overnight for proximity biotinylation. As a control, wild-type GATAD1 cells, without biotin or tetracycline addition, were used. Samples were multiplexed, as shown in Supplementary Fig. 41A with both forward and reverse label swap (n = 2). Cells were then lysed in lysis buffer (50 mM Tris-HCl pH 7.5, 150 mM NaCl, 1% Triton X-100, 1 mM EDTA, 1 mM EGTA, 0.1% SDS) with freshly added protease inhibitors and 1% sodium deoxycholate. To digest the excess DNA, 1 μl of Benzonase was added, and the samples were incubated for 20 min at 37 °C. Biotinylated proteins were enriched for 3 h at 4 °C using streptavidin-sepharose beads (GE Cat# 17-5113-01). Beads were pre-washed twice with 0.01% BSA and twice with lysis buffer. After enrichment, the beads were washed one time with lysis buffer, two times with washing buffer (50 mM HEPES-KOH pH 8.0, 100 mM KCl, 10% glycerol, 2 mM EDTA, 0.1% NP-40), and six times with 50 mM ammonium bicarbonate. Beads were resuspended in ammonium bicarbonate, and an on-bead protein digest with 1 μg of trypsin followed overnight. The next day, the digested proteins were transferred to a fresh tube and were incubated with 10 mM DTT for 30 min at 37 °C and with 55 mM iodoacetamide for 20 min at 37 °C in the dark. Samples were desalted with StageTips.
Peptides were separated using reversed-phase liquid chromatography (EASY nLC II 1200, Thermo Fisher Scientific) with self-made C18 microcolumns (20 cm long) packed with ReproSil-Pur C18-AQ 1.9 μm resin (Dr. Maisch, cat# r119.aq.0001). The chromatography system was coupled online to the electrospray ion source (Proxeon) of an Orbitrap Exploris 480 mass spectrometer (Thermo Fisher Scientific). The mobile phase consisted of buffer A (0.1% formic acid and 5% acetonitrile) and buffer B (0.1% formic acid and 80% acetonitrile). Peptides were eluted using a gradient with increasing concentrations of buffer B over 110 minutes, at a flow rate of 250 nl/min. Mass spectrometry data was acquired in data-dependent mode with settings for one full scan (resolution: 60,000; m/z range: 350–1600; normalized AGC target: 300%; maximum injection time: 10 ms), followed by top 20 MS/MS scans using higher-energy collisional dissociation (resolution: 15,000; m/z range: 200–2000; normalized AGC target: 100%; maximum injection time: 120 ms; isolation width: 1.3 m/z; normalized collision energy: 28%).
Raw files were analyzed with MaxQuant, version 2.0.3.0. […]

B1: C19orf43 (protein, UniProt Q9BQ61 1-176, looked up)
Telomerase RNA component …: MAARGRRAEPQGREAPGPAGGGGGGSRWAESGSGTSPESGDEEVSGAGSSPVSGGVNLFANDGSFLELFKRKMEEEQRQRQEEPPPGPQRPDQSAAAAGPGDPKRKGGPGSTLSFVGKRRGGNKLALKTGIVAKKQKTEDEVLTSKGDAWAKYMAEVKKYKAHQCGDDDKTRPLVK
How did the Log2_Ratio.H.L.normalized.WT_S102P_forward turn out when B1 was run?
Its Log2_Ratio.H.L.normalized.WT_S102P_forward is 2.125.

And the Ratio.H.L.normalized.WT_S102P_forward?
The Ratio.H.L.normalized.WT_S102P_forward was 0.2293.

What about the Log2_Ratio.H.L.normalized.WT_S102P_reverse of the same molecule?
Its Log2_Ratio.H.L.normalized.WT_S102P_reverse is 1.257.

And the Ratio.H.L.normalized.WT_S102P_reverse?
The Ratio.H.L.normalized.WT_S102P_reverse was 2.3903.

B2: SUGP1 (protein, UniProt Q8IWZ8 1-645, looked up)
SURP and G-patch …: MSLKMDNRDVAGKANRWFGVAPPKSGKMNMNILHQEELIAQKKREIEAKMEQKAKQNQVASPQPPHPGEITNAHNSSCISNKFANDGSFLQQFLKLQKAQTSTDAPTSAPSAPPSTPTPSAGKRSLLISRRTGLGLASLPGPVKSYSHAKQLPVAHRPSVFQSPDEDEEEDYEQWLEIKVSPPEGAETRKVIEKLARFVAEGGPELEKVAMEDYKDNPAFAFLHDKNSREFLYYRKKVAEIRKEAQKSQAASQKVSPPEDEEVKNLAEKLARFIADGGPEVETIALQNNRENQAFSFLYEPNSQGYKYYRQKLEEFRKAKASSTGSFTAPDPGLKRKSPPEALSGSLPPATTCPASSTPAPTIIPAPAAPGKPASAATVKRKRKSRWGPEEDKVELPPAELVQRDVDASPSPLSVQDLKGLGYEKGKPVGLVGVTELSDAQKKQLKEQQEMQQMYDMIMQHKRAMQDMQLLWEKAVQQHQHGYDSDEEVDSELGTWEHQLRRMEMDKTREWAEQLTKMGRGKHFIGDFLPPDELEKFMETFKALKEGREPDYSEYKEFKLTVENIGYQMLMKMGWKEGEGLGSEGQGIKNPVNKGTTTVDGAGFGIDRPAELSKEDDEYEAFRKRMMLAYRFRPNPLNNPRRPYY
Which results are given for B2?
Log2_Ratio.H.L.normalized.WT_S102P_forward: 1.6946; Ratio.H.L.normalized.WT_S102P_forward: 0.3089; Log2_Ratio.H.L.normalized.WT_S102P_reverse: 1.162; Ratio.H.L.normalized.WT_S102P_reverse: 2.2378

B3: PPP1R10 (protein, UniProt Q96QC0 1-940, looked up)
Serine/threonine-protein …: MGSGPIDPKELLKGLDSFLNRDGEVKSVDGISKIFSLMKEARKMVSRCTYLNILLQTRSPEILVKFIDVGGYKLLNNWLTYSKTTNNIPLLQQILLTLQHLPLTVDHLKQNNTAKLVKQLSKSSEDEELRKLASVLVSDWMAVIRSQSSTQPAEKDKKKRKDEGKSRTTLPERPLTEVKAETRAEEAPEKKREKPKSLRTTAPSHAKFRSTGLELETPSLVPVKKNASTVVVSDKYNLKPIPLKRQSNVAAPGDATPPAEKKYKPLNTTPNATKEIKVKIIPPQPMEGLGFLDALNSAPVPGIKIKKKKKVLSPTAAKPSPFEGKTSTEPSTAKPSSPEPAPPSEAMDADRPGTPVPPVEVPELMDTASLEPGALDAKPVESPGDPNQLTRKGRKRKSVTWPEEGKLREYFYFELDETERVNVNKIKDFGEAAKREILSDRHAFETARRLSHDNMEEKVPWVCPRPLVLPSPLVTPGSNSQERYIQAEREKGILQELFLNKESPHEPDPEPYEPIPPKLIPLDEECSMDETPYVETLEPGGSGGSPDGAGGSKLPPVLANLMGSMGAGKGPQGPGGGGINVQEILTSIMGSPNSHPSEELLKQPDYSDKIKQMLVPHGLLGPGPIANGFPPGGPGGPKGMQHFPPGPGGPMPGPHGGPGGPVGPRLLGPPPPPRGGDPFWDGPGDPMRGGPMRGGPGPGPGPYHRGRGGRGGNEPPPPPPPFRGARGGRSGGGPPNGRGGPGGGMVGGGGHRPHEGPGGGMGNSSGHRPHEGPGGGMGSGHRPHEGPGGSMGGGGGHRPHEGPGGGISGGSGHRPHEGPGGGMGAGGGHRPHEGPGGSMGGSGGHRPHEGPGHGGPHGHRPHDVPGHRGHDHRGPPPHEHRGHDGPGHGGGGHRGHDGGHSHGGDMSNRPVCRHFMMKGNCRYENNCAFYHPGVNGPPLP
B3 was tested. Which Log2_Ratio.H.L.normalized.WT_S102P_forward did it give?
The Log2_Ratio.H.L.normalized.WT_S102P_forward was 1.288.

And the Ratio.H.L.normalized.WT_S102P_forward?
The Ratio.H.L.normalized.WT_S102P_forward was 0.4096.

And the Log2_Ratio.H.L.normalized.WT_S102P_reverse?
Its Log2_Ratio.H.L.normalized.WT_S102P_reverse is 1.038.

And the Ratio.H.L.normalized.WT_S102P_reverse?
Its Ratio.H.L.normalized.WT_S102P_reverse is 2.0533.

B4: NOL8 (protein, UniProt Q76FK4 1-1167, looked up)
Nucleolar protein 8: MKVNRETKRLYVGGLSQDISEADLQNQFSRFGEVSDVEIITRKDDQGNPQKVFAYINISVAEADLKKCMSVLNKTKWKGGTLQIQLAKESFLHRLAQEREAAKAKKEESTTGNANLLEKTGGVDFHMKAVPGTEVPGHKNWVVSKFGRVLPVLHLKNQHKRKIIKYDPSKYCHNLKKIGEDFSNTIPISSLTWELEGGNDPMSKKRRGEFSDFHGPPKKIIKVQKDESSTGSLAMSTRPRRVIERPPLTQQQAAQKRTCDSITPSKSSPVPVSDTQKLKNLPFKTSGLETAKKRNSISDDDTDSEDELRMMIAKEENLQRTTQPSINESESDPFEVVRDDFKSGVHKLHSLIGLGIKNRVSCHDSDDDIMRNDREYDSGDTDEIIAMKKNVAKVKNSTEFSQMEKSTKKTSFKNRENCELSDHCIKLQKRKSNVESALSHGLKSLNRKSPSHSSSSEDADSASELADSEGGEEYNAMMKNCLRVNLTLADLEQLAGSDLKVPNEDTKSDGPETTTQCKFDRGSKSPKTPTGLRRGRQCIRPAEIVASLLEGEENTCGKQKPKENNLKPKFQAFKGVGCLYEKESMKKSLKDSVASNNKDQNSMKHEDPSIISMEDGSPYVNGSLGEVTPCQHAKKANGPNYIQPQKRQTTFESQDRKAVSPSSSEKRSKNPISRPLEGKKSLSLSAKTHNIGFDKDSCHSTTKTEASQEERSDSSGLTSLKKSPKVSSKDTREIKTDFSLSISNSSDVSAKDKHAEDNEKRLAALEARQKAKEVQKKLVHNALANLDGHPEDKPTHIIFGSDSECETEETSTQEQSHPGEEWVKESMGKTSGKLFDSSDDDESDSEDDSNRFKIKPQFEGRAGQKLMDLQSHFGTDDRFRMDSRFLETDSEEEQEEVNEKKTAEEEELAEEKKKALNVVQSVLQINLSNSTNRGSVAAKKFKDIIHYDPTKQDHATYERKRDDKPKESKAKRKKKREEAEKLPEVSKEMYYNIAMDLKEIFQTTKYTSEKEEGTPWNEDCGKEKPEEIQDPAALTSDAEQPSGFTFSFFDSDTKDIKEETYRVETVKPGKIVWQEDPRLQDSSSEEEDVTEETDHRNSSPGEASLLEKETTRFFFFSKNDERLQGSDLFWRGVGSNMSRNSWEARTTNLRMDCRKKHKDAKRKMKPK
Which results are given for B4?
Log2_Ratio.H.L.normalized.WT_S102P_forward: 1.703; Ratio.H.L.normalized.WT_S102P_forward: 0.3071; Log2_Ratio.H.L.normalized.WT_S102P_reverse: 1.269; Ratio.H.L.normalized.WT_S102P_reverse: 2.4103

B5: NACC1 (protein, UniProt Q96RE7 1-527, looked up)
Nucleus accumbens-associated …: MAQTLQMEIPNFGNSILECLNEQRLQGLYCDVSVVVKGHAFKAHRAVLAASSSYFRDLFNNSRSAVVELPAAVQPQSFQQILSFCYTGRLSMNVGDQFLLMYTAGFLQIQEIMEKGTEFFLKVSSPSCDSQGLHAEEAPSSEPQSPVAQTSGWPACSTPLPLVSRVKTEQQESDSVQCMPVAKRLWDSGQKEAGGGGNGSRKMAKFSTPDLAANRPHQPPPPQQAPVVAAAQPAVAAGAGQPAGGVAAAGGVVSGPSTSERTSPGTSSAYTSDSPGSYHNEEDEEEDGGEEGMDEQYRQICNMYTMYSMMNVGQTAEKVEALPEQVAPESRNRIRVRQDLASLPAELINQIGNRCHPKLYDEGDPSEKLELVTGTNVYITRAQLMNCHVSAGTRHKVLLRRLLASFFDRNTLANSCGTGIRSSTNDPRRKPLDSRVLHAVKYYCQNFAPNFKESEMNAIAADMCTNARRVVRKSWMPKVKVLKAEDDAYTTFISETGKIEPDMMGVEHGFETASHEGEAGPSAEALQ
Which Log2_Ratio.H.L.normalized.WT_S102P_forward does the source give for B5 here?
Its Log2_Ratio.H.L.normalized.WT_S102P_forward is 1.531.

What about the Ratio.H.L.normalized.WT_S102P_forward of the same molecule?
The Ratio.H.L.normalized.WT_S102P_forward was 0.346.

And the Log2_Ratio.H.L.normalized.WT_S102P_reverse?
The Log2_Ratio.H.L.normalized.WT_S102P_reverse was 1.188.

What about the Ratio.H.L.normalized.WT_S102P_reverse of the same molecule?
Its Ratio.H.L.normalized.WT_S102P_reverse is 2.2785.
